For 5 molecules, flow cytometry signal results are on record in patent publication US20260167721A1 (ABLEXIS, published 2026).

The target in test [1] is T1, CD33 on KILR-HL60 cells (UniProt P20138 18-364, limits assumed).
T1 construct: whole, on cells; Target of the gemtuzumab arm; also called CD33 expressing cells
Description: flow cytometry on KILR-HL60 (CD33 expressing) cells, antibody at 10 ug/ml.

The target in test [2] is T2, CD3 on Jurkat wild-type cells (UniProt P07766 23-207; P04234 22-171; P09693 23-182).
T2 construct: whole, on cells; also called Jurkat WT
Description: flow cytometry on Jurkat WT cells, antibody at 1 ug/ml.

For test [3], the target named is T2, CD3 on Jurkat wild-type cells. Description: flow cytometry on Jurkat WT cells, antibody at 10 ug/ml. (In general: Flow cytometry measures light scatter and fluorescence of single cells or particles in a stream.)
For test [4], the target named is T1, CD33 on KILR-HL60 cells. Kind of test: flow cytometry on KILR-HL60 (CD33 expressing) cells, antibody at 1 ug/ml.

T2 sequence (P07766 23-207, chain 1 of 3): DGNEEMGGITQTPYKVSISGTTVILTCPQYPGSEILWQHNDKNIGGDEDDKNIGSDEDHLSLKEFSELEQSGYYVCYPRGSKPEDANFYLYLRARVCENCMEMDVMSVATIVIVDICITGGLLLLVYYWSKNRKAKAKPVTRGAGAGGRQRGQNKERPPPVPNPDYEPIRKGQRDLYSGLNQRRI
T2 sequence (P04234 22-171, chain 2 of 3): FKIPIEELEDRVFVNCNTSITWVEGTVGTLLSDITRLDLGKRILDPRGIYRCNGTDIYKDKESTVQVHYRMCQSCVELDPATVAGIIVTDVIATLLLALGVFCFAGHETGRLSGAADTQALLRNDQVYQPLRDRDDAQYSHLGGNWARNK
T2 sequence (P09693 23-182, chain 3 of 3): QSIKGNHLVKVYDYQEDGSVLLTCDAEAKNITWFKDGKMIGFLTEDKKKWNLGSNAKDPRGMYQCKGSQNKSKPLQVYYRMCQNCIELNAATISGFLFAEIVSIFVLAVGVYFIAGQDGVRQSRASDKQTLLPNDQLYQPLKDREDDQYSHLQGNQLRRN
T1 sequence (P20138 18-364 limits assumed): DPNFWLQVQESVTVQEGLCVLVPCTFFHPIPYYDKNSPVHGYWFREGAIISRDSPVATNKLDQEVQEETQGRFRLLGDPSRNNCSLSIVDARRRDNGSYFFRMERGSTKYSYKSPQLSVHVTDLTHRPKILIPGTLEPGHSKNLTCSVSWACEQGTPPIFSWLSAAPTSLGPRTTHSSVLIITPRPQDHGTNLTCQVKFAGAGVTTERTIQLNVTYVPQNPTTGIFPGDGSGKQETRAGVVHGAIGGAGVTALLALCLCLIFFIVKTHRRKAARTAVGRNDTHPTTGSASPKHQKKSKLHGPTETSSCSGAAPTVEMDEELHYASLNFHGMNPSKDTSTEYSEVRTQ

B1: CD3 × CD33-BspAb38 (bispecific antibody)
scFv-Fc: not shown
heavy: EVQLVQSGAEVKKPGSSVKVSCKASGYTITDSNIHWVRQAPGQSLEWIGYIYPYNGGTDYNQKFKNRATLTVDNPTNTAYMELSSLRSEDTAFYYCVNGNPWLAYWGQGTLVTVSSASTKGPSVFPLAPSSKSTSGGTAALGCLVKDYFPEPVTVSWNSGALTSGVHTFPAVLQSSGLYSLSSVVTVPSSSLGTQTYICNVNHKPSNTKVDKRVEPKSCDKTHTCPPCPAPEFEGGPSVFLFPPKPKDTLMISRTPEVTCVVVDVSHEDPEVKFNWYVDGVEVHNAKTKPREEQYNSTYRVVSVLTVLHQDWLNGKEYKCKVSNKALPASIEKTISKAKGQPREPQVCTLPPSREEMTKNQVSLSCAVKGFYPSDIAVEWESNGQPENNYKTTPPVLDSDGSFFLVSKLTVDKSRWQQGNVFSCSVMHEALHNRFTQKSLSLSPGK
light: DIQLTQSPSTLSASVGDRVTITCRASESLDNYGIRFLTWFQQKPGKAPKLLMYAASNQGSGVPSRFSGSGSGTEFTLTISSLQPDDFATYYCQQTKEVPWSFGQGTKVEVKRTVAAPSVFIFPPSDEQLKSGTASVVCLLNNFYPREAKVQWKVDNALQSGNSQESVTEQDSKDSTYSLSSTLTLSKADYEKHKVYACEVTHQGLSSPVTKSFNRGEC
Regarding B1, the flow cytometry signal in the test with CD33 on KILR-HL60 cells [1] is 476000; in test [2], 23700; in test [3] it was 34100; in the test with CD33 on KILR-HL60 cells [4], 635000.

B2: CD3 × CD33-BspAb44 (bispecific antibody)
chain 1: EVQLVESGGGLVKPGGSLRLSCAASGFTFSRYSMNWVRQAPGKCLKWVSSISSSGSYKYYADSVKGRFTISRDNAKNSLYLQMNSLRAEDTAVYYCAREPPTLGMDYWGQGTLVTVSSGGGGSGGGGSGGGGSGGGGSNFMLTQPHSVSESPGKTVTISCTRSSGSIASNYVQWYQQRPGSSPTTVIYEDNQRPSGVPDRFSGSIDSSSNSASLTISGLKTEDEADYYCQSFDNSNRVFGCGTKLTVLDKTHTCPPCPAPEFEGGPSVFLFPPKPKDTLMISRTPEVTCVVVDVSHEDPEVKFNWYVDGVEVHNAKTKPREEQYNSTYRVVSVLTVLHQDWLNGKEYKCKVSNKALPASIEKTISKAKGQPREPQVYTLPPCREEMTKNQVSLWCLVKGFYPSDIAVEWESNGQPENNYKTTPPVLDSDGSFFLYSKLTVDKSRWQQGNVFSCSVMHEALHNHYTQKSLSLSPGK
chain 2: EVQLVQSGAEVKKPGSSVKVSCKASGYTITDSNIHWVRQAPGQSLEWIGYIYPYNGGTDYNQKFKNRATLTVDNPTNTAYMELSSLRSEDTAFYYCVNGNPWLAYWGQGTLVTVSSASTKGPSVFPLAPSSKSTSGGTAALGCLVKDYFPEPVTVSWNSGALTSGVHTFPAVLQSSGLYSLSSVVTVPSSSLGTQTYICNVNHKPSNTKVDKRVEPKSCDKTHTCPPCPAPEFEGGPSVFLFPPKPKDTLMISRTPEVTCVVVDVSHEDPEVKFNWYVDGVEVHNAKTKPREEQYNSTYRVVSVLTVLHQDWLNGKEYKCKVSNKALPASIEKTISKAKGQPREPQVCTLPPSREEMTKNQVSLSCAVKGFYPSDIAVEWESNGQPENNYKTTPPVLDSDGSFFLVSKLTVDKSRWQQGNVFSCSVMHEALHNRFTQKSLSLSPGK
chain 3: DIQLTQSPSTLSASVGDRVTITCRASESLDNYGIRFLTWFQQKPGKAPKLLMYAASNQGSGVPSRFSGSGSGTEFTLTISSLQPDDFATYYCQQTKEVPWSFGQGTKVEVKRTVAAPSVFIFPPSDEQLKSGTASVVCLLNNFYPREAKVQWKVDNALQSGNSQESVTEQDSKDSTYSLSSTLTLSKADYEKHKVYACEVTHQGLSSPVTKSFNRGEC
Regarding B2, the flow cytometry signal with CD33 on KILR-HL60 cells [1] amounted to 475000; in test [2] it was 113000; in test [3] it was 84800; with CD33 on KILR-HL60 cells [4] it was 640000.

B3: CD3 × CD33-BspAb42 (bispecific antibody)
chain 1: EVQLVESGGGLVKPGGSLRLSCAASGFTLSSYSMNWVRQAPGKCLEWVSSISRSGSYIYYADSVKGRFTISRDNAKNSLYLQMNSLRAEDTAVYYCAREKWELLYFDYWGQGTLVTVSSGGGGSGGGGSGGGGSGGGGSNFMLTQPHSVSESPGKTVTISCTRSSGSIASNYVQWYQQRPGSSPTTVIYEDNQRPSGVPDRFSGSIDSSSNSASLTISGLKTEDEADYYCQSYDSSNRVFGCGTKLTVLDKTHTCPPCPAPEFEGGPSVFLFPPKPKDTLMISRTPEVTCVVVDVSHEDPEVKFNWYVDGVEVHNAKTKPREEQYNSTYRVVSVLTVLHQDWLNGKEYKCKVSNKALPASIEKTISKAKGQPREPQVYTLPPCREEMTKNQVSLWCLVKGFYPSDIAVEWESNGQPENNYKTTPPVLDSDGSFFLYSKLTVDKSRWQQGNVFSCSVMHEALHNHYTQKSLSLSPGK
chain 2: EVQLVQSGAEVKKPGSSVKVSCKASGYTITDSNIHWVRQAPGQSLEWIGYIYPYNGGTDYNQKFKNRATLTVDNPTNTAYMELSSLRSEDTAFYYCVNGNPWLAYWGQGTLVTVSSASTKGPSVFPLAPSSKSTSGGTAALGCLVKDYFPEPVTVSWNSGALTSGVHTFPAVLQSSGLYSLSSVVTVPSSSLGTQTYICNVNHKPSNTKVDKRVEPKSCDKTHTCPPCPAPEFEGGPSVFLFPPKPKDTLMISRTPEVTCVVVDVSHEDPEVKFNWYVDGVEVHNAKTKPREEQYNSTYRVVSVLTVLHQDWLNGKEYKCKVSNKALPASIEKTISKAKGQPREPQVCTLPPSREEMTKNQVSLSCAVKGFYPSDIAVEWESNGQPENNYKTTPPVLDSDGSFFLVSKLTVDKSRWQQGNVFSCSVMHEALHNRFTQKSLSLSPGK
chain 3: DIQLTQSPSTLSASVGDRVTITCRASESLDNYGIRFLTWFQQKPGKAPKLLMYAASNQGSGVPSRFSGSGSGTEFTLTISSLQPDDFATYYCQQTKEVPWSFGQGTKVEVKRTVAAPSVFIFPPSDEQLKSGTASVVCLLNNFYPREAKVQWKVDNALQSGNSQESVTEQDSKDSTYSLSSTLTLSKADYEKHKVYACEVTHQGLSSPVTKSFNRGEC
Take B3: the flow cytometry signal with CD33 on KILR-HL60 cells [1] came to 485000; in test [2], 12200; in test [3] it was 26400; in the test with CD33 on KILR-HL60 cells [4] it was 453000.

B4: CD3 × CD33-BspAb39 (bispecific antibody)
chain 1: not shown
chain 2: EVQLVQSGAEVKKPGSSVKVSCKASGYTITDSNIHWVRQAPGQSLEWIGYIYPYNGGTDYNQKFKNRATLTVDNPTNTAYMELSSLRSEDTAFYYCVNGNPWLAYWGQGTLVTVSSASTKGPSVFPLAPSSKSTSGGTAALGCLVKDYFPEPVTVSWNSGALTSGVHTFPAVLQSSGLYSLSSVVTVPSSSLGTQTYICNVNHKPSNTKVDKRVEPKSCDKTHTCPPCPAPEFEGGPSVFLFPPKPKDTLMISRTPEVTCVVVDVSHEDPEVKFNWYVDGVEVHNAKTKPREEQYNSTYRVVSVLTVLHQDWLNGKEYKCKVSNKALPASIEKTISKAKGQPREPQVCTLPPSREEMTKNQVSLSCAVKGFYPSDIAVEWESNGQPENNYKTTPPVLDSDGSFFLVSKLTVDKSRWQQGNVFSCSVMHEALHNRFTQKSLSLSPGK
chain 3: DIQLTQSPSTLSASVGDRVTITCRASESLDNYGIRFLTWFQQKPGKAPKLLMYAASNQGSGVPSRFSGSGSGTEFTLTISSLQPDDFATYYCQQTKEVPWSFGQGTKVEVKRTVAAPSVFIFPPSDEQLKSGTASVVCLLNNFYPREAKVQWKVDNALQSGNSQESVTEQDSKDSTYSLSSTLTLSKADYEKHKVYACEVTHQGLSSPVTKSFNRGEC
As to B4, the flow cytometry signal with CD33 on KILR-HL60 cells [1] was 572000; in test [2], 2160; in test [3], 2740; with CD33 on KILR-HL60 cells [4], 541000.

B5: CD3 × CD33-BspAb45 (bispecific antibody)
chain 1: EVQLVESGGGLVQPGGSLRLSCAASGFTFSRYSMNWVRQAPGKCLEWVSYISSSSSSIYYADSVKGRFTISRDNAKNSLYLQMNSLRDEDTAVYYCARDRRATLDYWGQGTLVTVSSGGGGSGGGGSGGGGSGGGGSNFMLTQPHSVSESPGKTVTISCTRSSGSIASNYVQWYQQRPGSSPTTVIYEDNQRPSGVPDRFSGSIDSSSNSASLTISGLKTEDEADYYCQSYDSSNHVFGCGTKLTVLDKTHTCPPCPAPEFEGGPSVFLFPPKPKDTLMISRTPEVTCVVVDVSHEDPEVKFNWYVDGVEVHNAKTKPREEQYNSTYRVVSVLTVLHQDWLNGKEYKCKVSNKALPASIEKTISKAKGQPREPQVYTLPPCREEMTKNQVSLWCLVKGFYPSDIAVEWESNGQPENNYKTTPPVLDSDGSFFLYSKLTVDKSRWQQGNVFSCSVMHEALHNHYTQKSLSLSPGK
chain 2: EVQLVQSGAEVKKPGSSVKVSCKASGYTITDSNIHWVRQAPGQSLEWIGYIYPYNGGTDYNQKFKNRATLTVDNPTNTAYMELSSLRSEDTAFYYCVNGNPWLAYWGQGTLVTVSSASTKGPSVFPLAPSSKSTSGGTAALGCLVKDYFPEPVTVSWNSGALTSGVHTFPAVLQSSGLYSLSSVVTVPSSSLGTQTYICNVNHKPSNTKVDKRVEPKSCDKTHTCPPCPAPEFEGGPSVFLFPPKPKDTLMISRTPEVTCVVVDVSHEDPEVKFNWYVDGVEVHNAKTKPREEQYNSTYRVVSVLTVLHQDWLNGKEYKCKVSNKALPASIEKTISKAKGQPREPQVCTLPPSREEMTKNQVSLSCAVKGFYPSDIAVEWESNGQPENNYKTTPPVLDSDGSFFLVSKLTVDKSRWQQGNVFSCSVMHEALHNRFTQKSLSLSPGK
chain 3: DIQLTQSPSTLSASVGDRVTITCRASESLDNYGIRFLTWFQQKPGKAPKLLMYAASNQGSGVPSRFSGSGSGTEFTLTISSLQPDDFATYYCQQTKEVPWSFGQGTKVEVKRTVAAPSVFIFPPSDEQLKSGTASVVCLLNNFYPREAKVQWKVDNALQSGNSQESVTEQDSKDSTYSLSSTLTLSKADYEKHKVYACEVTHQGLSSPVTKSFNRGEC
With B5, the flow cytometry signal turned out to be 741000 in the test with CD33 on KILR-HL60 cells [1], 19200 in test [2], 38300 in test [3] and 640000 with CD33 on KILR-HL60 cells [4].
